In patent publication US20230365658A1:

Molecular target: SARS-CoV-2 spike (S) glycoprotein, artificially-constructed BA.2.75+R346T (SARS-CoV-2), P0DTC2
Assay: cell-based or functional assay

B1: mAb_v2130Vanderbilt_184_20220114_00112 (antibody, V domains shown)
VH: EVQLVESGGGLVKPGGSLRLSCAASGFTFRDVWMSWVRQAPGKGLEWVGRIKSKIDGGTTDYAAPVKGRFTISRDDSKNTLYLQMNSLKTEDTAVYYCTTAGSYYYDTVGPELPEGKFDYWGQGTLVTVSS
VL: not shown
  pseudoviral neutralization IC50: 0.674 µg/mL
